Assay results from PMC11239505.

Molecular target: Gαi (in HEK cells only expressing Gαs and Gαi, GloSensor assay)

GloSensor assay: decrease of the forskolin-stimulated cAMP bioluminescence signal after a 2-s 365-nm light pulse, HEK cells only expressing Gαs and Gαi [%]	Substance
63	parapinopsin from the Japanese lamprey Lethenteron camtschaticum (LcPPO) (receptor)
62	trafficking-enhanced eOPN3 derived from Anopheles stephensi (AsOPN3) (receptor)
